Experiment [1] addresses T1, mouse TREM2 on Expi 293 cells (mouse, UniProt Q99NH8 19-227).
T1 construct: also called Expi-mTREM2; mTREM2
T1 sequence: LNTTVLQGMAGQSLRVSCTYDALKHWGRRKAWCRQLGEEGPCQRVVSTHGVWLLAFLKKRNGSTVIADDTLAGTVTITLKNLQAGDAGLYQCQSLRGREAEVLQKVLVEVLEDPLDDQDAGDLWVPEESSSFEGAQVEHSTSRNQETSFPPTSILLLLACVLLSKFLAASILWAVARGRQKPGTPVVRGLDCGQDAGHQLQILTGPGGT
The experiment is described as follows: flow cytometry on Expi 293 cells over-expressing mouse TREM2; Alexa Fluor 647 anti-Fc secondary. As for the experimental part:
(§1) 100,000 to 500,000 Expi 293 parental cells or Expi 293 cells over-expressing human or mouse TREM2 were plated in 96 well plates and dead cells were stained with Zombie Near Infrared (Biolegend). Titrations of indicated unconjugated antibodies were incubated with these cells within a range of 0 ug/ml to 10 ug/ml in a 1:3 dilution range across 8-10 points. Dependent on their isotype (hIgG1 or mIgG2a), these primary unconjugated antibodies were detected with Alexa Fluor 647 conjugated anti-human Fc or anti-mouse Fc secondary antibodies (Jackson Immunoresearch). Alexa Fluor 647 signal was measured by flow cytometry (BD Fortessa X-14, BD Biosciences). EC50 values were calculated by curve fitting signal generated from antibodies binding to over-expressing cells over background fluorescence generated from HEK293 parental cells in Graphpad Prism (Graphpad Software).

Experiment [2] concerns the target T2, TREM2 human IgG1 Fc fusion protein (human, UniProt Q9NZC2 19-174, limits assumed).
T2 construct: In-house, SEC purified to >95% purity; also called human TREM2-Fc; not shown: human IgG1 Fc
T2 sequence: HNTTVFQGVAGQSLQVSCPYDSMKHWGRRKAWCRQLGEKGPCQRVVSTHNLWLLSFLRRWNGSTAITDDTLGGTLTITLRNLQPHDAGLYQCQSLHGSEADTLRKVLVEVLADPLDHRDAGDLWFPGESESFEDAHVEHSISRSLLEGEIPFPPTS
The experiment can be described thus: SPR, Biacore T200; TREM2-Fc amine-coupled to CM5 chip, antibody injected; 1:1 Langmuir fit. As for the experimental part:
(§2) Binding kinetics were determined by surface plasmon resonance using a Biacore T200 (GE Healthcare, UK) with human TREM2 His (Sino Biological, Beijing, P.R.China) or […] captured on Series S CM5 chips through anti-His capture or TREM2 human IgG1 Fc fusion protein (in-house SEC purified to >95% purity) directly immobilized to chips by amine coupling. Serial dilutions of indicated antibodies were injected at 30 ul/minute for 2 minutes. PBS or system buffer was then injected at 30 ul/minute for 400 seconds to observe dissociation. Binding responses were corrected by subtraction of responses on a blank flow cell. For kinetic analysis, a 1:1 Langmuir model of global fittings of kₒₙ and koff values, was used. The Kd values were determined from the ratios of kₒₙ and koff.

The target of experiment [3] is T3, human TREM2 on Expi 293 cells (human, UniProt Q9NZC2 19-230).
T3 construct: also called Expi-hTREM2; hTREM2
T3 sequence: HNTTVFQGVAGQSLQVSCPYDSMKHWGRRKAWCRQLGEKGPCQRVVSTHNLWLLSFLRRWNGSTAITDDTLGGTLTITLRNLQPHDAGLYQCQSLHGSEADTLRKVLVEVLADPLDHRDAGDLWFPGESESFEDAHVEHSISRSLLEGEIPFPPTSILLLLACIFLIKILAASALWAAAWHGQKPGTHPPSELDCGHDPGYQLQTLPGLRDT
The experiment is described as follows: flow cytometry on Expi 293 cells over-expressing human TREM2; Alexa Fluor 647 anti-Fc secondary. Here is the method: as §1

The target of experiment [4] is T4, human TREM2 His (Sino Biological) (human, UniProt Q9NZC2 19-174).
T4 construct: Bought reagent; the soluble reagent is probably only the extracellular part; not shown: His tag
T4 sequence: T2 sequence
The experiment is described as follows: SPR, Biacore T200; TREM2-His captured on CM5 chip by anti-His, antibody injected; 1:1 Langmuir fit. Here is the method:
as §2

Numbering of substitutions follows the chain as printed.

B1: PI37012 (antibody, human IgG1, kappa, V domains shown)
VH: EVQLLESGGGLVQPGGSLRLSCAASGFTFSNYYMAWVRQAPGKGLEWVSSLTNSGGSTYYADSVKGRFTISRDNSKNTLYLQMNSLRAEDTAVYYCTREWAGSGYFDYWGQGTLVTVSS
VL: DIQMTQSPSSLSASVGDRVTITCKASQNVGNNLAWYQQKPGKAPKLLIYYTSNRFTGVPSRFSGSGSGTDFTLTISSLQPEDFATYYCQRIYNSPWTFGQGTKLEIKR
notes: Humanized anti-TREM2 antibody, human IgG1, produced in HEK293; also called 37012 antibody; PI37012 anti-TREM2 mAb
Molecule B1 yielded an EC50 in experiment [1] of 0.5 nM. This lies in the sub-nanomolar range.

B2: PI37017 (antibody, human IgG1, kappa, V domains shown)
VH: B1 VH with T97A, R98K
VL: B1 VL
notes: Parent humanized clone, human IgG1; also called 37017 antibody
As to B2, in experiment [2], binding was put at a Kd of 18 nM, the koff was determined as 0.00614 s⁻¹ and the kon amounted to 340000 M⁻¹ s⁻¹. In experiment [3], this molecule registered an EC50 of 23.3 nM. Also, the EC50 in experiment [1] amounted to 3.6 nM.

B3: PI37014 (antibody, human IgG1, kappa, V domains shown)
VH: B1 VH with S49A, I70L
VL: B1 VL
notes: Humanized anti-TREM2 antibody, human IgG1
In experiment [2], B3 gave a Kd of 1.55 nM, a koff of 0.000732 s⁻¹ and a kon of 471000 M⁻¹ s⁻¹. Moreover, the EC50 in experiment [3] was 1.4 nM. For the same molecule, in experiment [4], the affinity, expressed as Kd, was 4.74 nM; the koff is 0.00243 s⁻¹; the kon worked out at 511000 M⁻¹ s⁻¹.

B4: PI37013 (antibody, human IgG1, kappa, V domains shown)
VH: B1 VH
VL: B1 VL with I21M, I48L, L78V, I106L
notes: as for B3
Take B4: in experiment [2], the Kd was 1.72 nM, the koff amounted to 0.000888 s⁻¹ and the kon worked out at 517000 M⁻¹ s⁻¹. The molecule further showed an EC50 in experiment [3] of 1.4 nM. In experiment [1], this molecule registered an EC50 of 1.2 nM. Further, in experiment [4], the Kd came out at 4.82 nM, the koff was found to be 0.00549 s⁻¹ and the kon was determined as 1.14e+06 M⁻¹ s⁻¹.

The values are drawn from patent US20240301059A1 (PIONYR IMMUNOTHERAPEUTICS, published 2024).
